Experimental data: FireProtDB (doi:10.1016/0022-2836(91)90725-l)

Conditions: Bacillus amyloliquefaciens; pH 6.3; 25 °C; Urea; Fluorescence; MES 1.00 M; NaCl 613 mM; reversible: yes; whole UniProt chain shown

B1: Ribonuclease wild type, P00648 (protein)
chain: MMKMEGIALKKRLSWISVCLLVLVSAAGMLFSTAAKTETSSHKAHTEAQVINTFDGVADYLQTYHKLPDNYITKSEAQALGWVASKGNLADVAPGKSIGGDIFSNREGKLPGKSGRTWREADINYTSGFRNSDRILYSSDWLIYKTTDHYQTFTKIR
  denaturant m value: 2.22 kcal/mol/M
  denaturant midpoint (higher = more stable): 4.57 M
  unfolding free energy: 10.2 kcal/mol
